# Experimental data published in article PMC6733935, “A convenient and efficient total solid-phase synthesis of DOTA-functionalized tumor-targeting peptides for PET imaging of cancer” (EJNMMI Research, 2019).
# Square brackets hold non-standard residues; d marks the D form. Peptide text beside a SMILES is read from it. * marks the point of attachment. DOTA = O=C(O)CN1CCN(CC(=O)O)CCN(CC(=O)*)CCN(CC(=O)O)CC1; Cha = N[C@@H](CC1CCCCC1)C(=O)O; Nle = CCCC[C@H](N)C(=O)O; Ahx = NCCCCCC(=O)O
# How the values were obtained:
# [1] = biological target: T1, BN/GRP receptor-positive T47D human breast cancer cells (Homo sapiens, UniProt P30550); assay: Saturation binding assay on T47D cells; settings: n = 3-5 experiments; for Bmax (apparent number of binding sites per cell): SD < 15%; for Kd: ~300,000 cells, 0.1-25 nM radiopeptide, 60 min, room temperature, mean ± SD
# T1 construct: BN/GRP receptor-positive MDA-MB-231, MCF7, T47D human breast cancer, and PC3 human prostate cancer lines; host or cells: MDA-MB-231, MCF7, T47D (human breast cancer), PC3 (human prostate cancer); intact cells
# Procedure: (§1) The cell binding of ^68Ga-radiolabeled peptides into BN/GRP receptor-positive MDA-MB-231, MCF7, T47D human breast cancer, and PC3 human prostate cancer lines (American Type Culture Collection, Rockville, MD, USA) was performed according to the method described previously. In brief, ∼ 300,000 cells (in 300 μL in low-serum media) were incubated with various amounts of radiopeptides, ranging between 0.1 and 25 nM of peptide (prepared from the serial dilutions of HPLC-purified radiopeptides), in duplicate for 60 min at room temperature. The initial concentrations of ^68Ga-labeled peptides were determined according to a well-established HPLC technique with simultaneous detection by UV absorbance. As the amount of BN peptide in the reaction mixture was too small to be detected by UV absorption at 220 nm, the radioactive peptide chromatograms from the HPLC analysis were compared (with UV chromatograms) with those of known concentrations of the corresponding nonradioactive peptides for the mass determination. Incubation was terminated by dilution with cold saline (300 μL) and the cells were pelleted by centrifugation. The cell pellets was then rapidly washed with cold saline to remove any unbound peptide and centrifuged to collect supernatants. Radioactivity in the cell pellet and the washings was measured in a γ-counter. Non-specific binding was determined in the presence of ~ 200-fold molar excess of unlabeled BN peptide. Specific binding is calculated by subtracting the non-specifically bound radioactivity from that of the total binding. The dissociation constant (Kd) was calculated using a plot of cell bound activity versus the concentration of the radioligand using GraphPad Prism software (GraphPad Software Inc., San Diego, CA, USA).
# [2] = Radio-HPLC retention time as reflection of lipophilicity; assay type: physicochemical; settings: chromatographic, econosphere C18 (10 μm, 250 × 4.6 mm), 0.1% TFA water/acetonitrile, 5 to 95% B over 30 min, 1.1 mL/min; radio detection; used as reflection of lipophilicity
# Procedure: The HPLC analysis and purification of the peptides were performed on a Shimadzu HPLC system using econosphere C18 reversed-phase column (10 μm, 250 × 4.6 mm). For all HPLC experiments, a gradient system of 0.1% (v/v) TFA in water (solvent A) and 0.1% (v/v) TFA in acetonitrile (solvent B) at a flow rate of 1.1 mL/min was used. The HPLC gradient began with a solvent composition of 95% A and 5% B from 0 to 2.5 min followed by a linear gradient of 95% A and 5% B to 5% A and 95% B over 30 min. The gradient remained at this position for 3 min before switching back to 95% A and 5% B for another 7 min. The major peak isolated and the acetonitrile was then slowly evaporated under a stream of nitrogen gas. Radiochemical purity was estimated by evaluating radioactivity peaks eluted for each ^68Ga-labeled peptide from the HPLC column and calculating the area under the peak (ROI). The main peak of each radiopeptide was isolated and reconstituted in sterile saline for in vitro and in vivo experiments. Radiolabeling of DOTA-coupled BN peptides with ^68Ga was accomplished simply by mixing ~ 20 μg BN peptide with sodium acetate buffer and ^68GaCl3 followed by heating to complete the labeling reaction. By this facile method, a high and reproducible radiolabeling of peptides with ^68Ga was achieved (up to 95%), with a specific radioactivity of greater than 250 Ci/mmol. […] A radiolabeling efficiency of greater than 90% was obtained in all cases, and it ranged between 90 and 95%. […] RP-HPLC retention times of the major peaks, ranging from 18.3 to 20.3 min, reflected slightly variable lipophilicity of these ^68Ga-complexes (Table 1).
# [3] = biological target: T2, BN/GRP receptor-positive PC3 human prostate cancer cells (Homo sapiens, UniProt P30550); assay: Saturation binding assay on PC3 cells; settings: n = 3-5 experiments; for Bmax (apparent number of binding sites per cell): SD < 15%; for Kd: ~300,000 cells, 0.1-25 nM radiopeptide, 60 min, room temperature, mean ± SD
# T2 construct: BN/GRP receptor-positive MDA-MB-231, MCF7, T47D human breast cancer, and PC3 human prostate cancer lines; host or cells: MDA-MB-231, MCF7, T47D (human breast cancer), PC3 (human prostate cancer); intact cells
# Procedure: as §1
# in vivo = assay: in vivo; parameters: species or system Balb/c mice; settings: Balb/c, mouse, iv; for dose excreted at 1 h / dose excreted at 2 h / tissue uptake at 1 h / tissue uptake at 2 h: total radioactivity
# Procedure: Approval for the animal protocol used in this study was obtained from the Institutional Animal Care and Use Committee. Animal studies were conducted according to the international regulations governing the safe and proper use of laboratory animals. In vivo biodistribution were performed on healthy Balb/c mice (n = 3–5 in each group, body weight 19–22 g) at 1 and 2 h after intravenous injection of the HPLC-purified radiopeptide (100 μL, 15–20 μCi, total peptide dose ~ 20 ng) via the lateral tail vein. The mice were sacrificed by cervical dislocation at specified time points and blood samples were withdrawn with a syringe from the heart. Major organs such as lungs, stomach, spleen, pancreas, intestines, liver, kidneys, etc. were isolated, weighed, and radioactivity in each organs and tissues were measured using a γ-scintillation counter. Uptake of radioactivity in the tissues and organs was expressed as the percent injected dose per gram (% ID/g) of tissue/organ, which was calculated by comparison with standard solutions representing 10% of the injected dose per animal. For the clearance studies, radioactivity in the urine with bladder and feces is expressed as the percent of the injected dose per tissue (% ID). Values are expressed as mean ± SD for a group of 3-5 animals at each time point.
# [4] = Uptake in Intestines (measured without their contents)
compound,measurement,setting,value
"CCCC[C@H](NC(=O)[C@H](Cc1c[nH]cn1)NC(=O)[C@H](CC1CCCCC1)NC(=O)[C@@H](NC(=O)[C@H](C)NC(=O)[C@H](Cc1c[nH]c2ccccc12)NC(=O)[C@H](CCC(N)=O)NC(=O)[C@H](CS)NC(=O)CNC(=O)CNC(=O)CCCCCNC(=O)CN1CCN(CC(=O)O)CCN(CC(=O)O)CCN(CC(=O)O)CC1)C(C)C)C(=O)N[C@@H](CCSC)C(N)=O [^68Ga-DOTA-Ahx-BN Cyclen, metal not drawn] ({DOTA-Ahx}-GGCQWAV[Cha]H[Nle]M-NH2)",Bmax (apparent number of binding sites per cell),[1],4.75 × 10^5 sites/cell
same,Kd,[1],15.3 ± 3.42 nM
same,Radio-HPLC tR,[2],18.3 min
same,Bmax (apparent number of binding sites per cell),[3],5.29 × 10^5 sites/cell
same,Kd,[3],9.89 ± 1.56 nM
same,Uptake in Lungs,in vivo; 2 h,0.10 ± 0.02 %ID/g
same,dose excreted at 1 h,in vivo; %ID excreted in Feces,0.85 ± 0.17%
same,dose excreted at 2 h,in vivo; %ID excreted in Feces,0.76 ± 0.11%
same,dose excreted at 1 h,in vivo; %ID excreted in Urine,80 ± 9.8%
same,dose excreted at 2 h,in vivo; %ID excreted in Urine,64 ± 6.35%
same,tissue uptake at 1 h,in vivo; Uptake in Blood,0.18 ± 0.04 %ID/g
same,tissue uptake at 2 h,in vivo; Uptake in Blood,0.11 ± 0.03 %ID/g
same,tissue uptake at 1 h,in vivo; Uptake in Bone,0.15 ± 0.03 %ID/g
same,tissue uptake at 2 h,in vivo; Uptake in Bone,0.06 %ID/g
same,tissue uptake at 1 h,in vivo; [4],0.64 ± 0.12 %ID/g
same,tissue uptake at 2 h,in vivo; [4],0.41 ± 0.05 %ID/g
same,tissue uptake at 1 h,in vivo; Uptake in Kidneys,1.98 ± 0.34 %ID/g
same,tissue uptake at 2 h,in vivo; Uptake in Kidneys,1.41 ± 0.27 %ID/g
same,tissue uptake at 1 h,in vivo; Uptake in Liver,0.61 ± 0.1 %ID/g
same,tissue uptake at 2 h,in vivo; Uptake in Liver,0.46 ± 0.07 %ID/g
same,tissue uptake at 1 h,in vivo; Uptake in Lungs,0.19 ± 0.04 %ID/g
same,tissue uptake at 1 h,in vivo; Uptake in Pancreas,1.49 ± 0.12 %ID/g
same,tissue uptake at 2 h,in vivo; Uptake in Pancreas,1.02 ± 0.15 %ID/g
same,tissue uptake at 1 h,in vivo; Uptake in Spleen,0.13 ± 0.01 %ID/g
same,tissue uptake at 2 h,in vivo; Uptake in Spleen,0.09 ± 0.01 %ID/g
same,tissue uptake at 1 h,in vivo; Uptake in Stomach,1.48 ± 0.22 %ID/g
same,tissue uptake at 2 h,in vivo; Uptake in Stomach,0.43 ± 0.11 %ID/g
"CCCC[C@H](NC(=O)[C@H](Cc1c[nH]cn1)NC(=O)[C@H](CC1CCCCC1)NC(=O)[C@@H](NC(=O)[C@H](C)NC(=O)[C@H](Cc1c[nH]c2ccccc12)NC(=O)[C@H](CCC(N)=O)NC(=O)[C@H](CS)NC(=O)CNC(=O)CNC(=O)CCCCCNC(=O)CN1CCN(CC(=O)O)CCN(CC(=O)O)CCN(CC(=O)O)CC1)C(C)C)C(=O)N[C@@H](CCSC)C(N)=O [^68Ga-DOTA-Ahx-BN Tris-, metal not drawn] ({DOTA-Ahx}-GGCQWAV[Cha]H[Nle]M-NH2)",Bmax (apparent number of binding sites per cell),[1],4.91 × 10^5 sites/cell
same,Kd,[1],14.5 ± 2.4 nM
same,Radio-HPLC tR,[2],18.3 min
same,Bmax (apparent number of binding sites per cell),[3],4.88 × 10^5 sites/cell
same,Kd,[3],10.4 ± 1.71 nM
same,%ID excreted in Feces,in vivo; 1 h,0.83 ± 0.19 %ID
same,%ID excreted in Urine,in vivo; 1 h,74.0 ± 8.03 %ID
same,Uptake in Blood,in vivo; 1 h,0.29 ± 0.05 %ID/g
same,Uptake in Bone,in vivo; 1 h,0.17 ± 0.03 %ID/g
same,Uptake in Intestines (measured without their contents),in vivo; 1 h,0.67 ± 0.12 %ID/g
same,Uptake in Kidneys,in vivo; 1 h,2.89 ± 0.41 %ID/g
same,Uptake in Liver,in vivo; 1 h,1.12 ± 0.30 %ID/g
same,Uptake in Lungs,in vivo; 1 h,0.36 ± 0.10 %ID/g
same,Uptake in Pancreas,in vivo; 1 h,2.0 ± 0.27 %ID/g
same,Uptake in Spleen,in vivo; 1 h,0.09 ± 0.01 %ID/g
same,Uptake in Stomach,in vivo; 1 h,1.71 ± 0.19 %ID/g
same,%ID excreted in Feces,in vivo; 2 h,0.69 ± 0.10 %ID
same,%ID excreted in Urine,in vivo; 2 h,69.0 ± 5.15 %ID
same,Uptake in Blood,in vivo; 2 h,0.17 ± 0.02 %ID/g
same,Uptake in Bone,in vivo; 2 h,0.09 ± 0.01 %ID/g
same,Uptake in Intestines (measured without their contents),in vivo; 2 h,0.43 ± 0.09 %ID/g
same,Uptake in Kidneys,in vivo; 2 h,1.63 ± 0.24 %ID/g
same,Uptake in Liver,in vivo; 2 h,0.53 ± 0.09 %ID/g
same,Uptake in Lungs,in vivo; 2 h,0.22 ± 0.05 %ID/g
same,Uptake in Pancreas,in vivo; 2 h,1.25 ± 0.13 %ID/g
same,Uptake in Spleen,in vivo; 2 h,0.06 ± 0.0 %ID/g
same,Uptake in Stomach,in vivo; 2 h,0.48 ± 0.06 %ID/g
